Laboratory results published in publication PMC7698748.

Biological target: soluble trimeric SARS-CoV-2 spike protein (residues 1-1208) (SARS-CoV-2), P0DTC2
Assay: SPR
Conditions: remark: other sources report otherwise

B1: soluble recombinant human DPP4 (residues 29-766), His6-tagged, P27487 29-766 (enzyme)
chain: NKGTDDATADSRKTYTLTDYLKNTYRLKLYSLRWISDHEYLYKQENNILVFNAEYGNSSVFLENSTFDEFGHSINDYSISPDGQFILLEYNYVKQWRHSYTASYDIYDLNKRQLITEERIPNNTQWVTWSPVGHKLAYVWNNDIYVKIEPNLPSYRITWTGKEDIIYNGITDWVYEEEVFSAYSALWWSPNGTFLAYAQFNDTEVPLIEYSFYSDESLQYPKTVRVPYPKAGAVNPTVKFFVVNTDSLSSVTNATSIQITAPASMLIGDHYLCDVTWATQERISLQWLRRIQNYSVMDICDYDESSGRWNCLVARQHIEMSTTGWVGRFRPSEPHFTLDGNSFYKIISNEEGYRHICYFQIDKKDCTFITKGTWEVIGIEALTSDYLYYISNEYKGMPGGRNLYKIQLSDYTKVTCLSCELNPERCQYYSVSFSKEAKYYQLRCSGPGLPLYTLHSSVNDKGLRVLEDNSALDKMLQNVQMPSKKLDFIILNETKFWYQMILPPHFDKSKKYPLLLDVYAGPCSQKADTVFRLNWATYLASTENIIVASFDGRGSGYQGDKIMHAINRRLGTFEVEDQIEAARQFSKMGFVDNKRIAIWGWSYGGYVTSMVLGSGSGVFKCGIAVAPVSRWEYYDSVYTERYMGLPTPEDNLDHYRNSTVMSRAENFKQVEYLLIHGTADDNVHFQQSAQISKALVDVGVDFQAMWYTDEDHGIASSTAHQHIYTHMSHFIKQCFSLP
How did the Kd turn out when B1 was run?
Its Kd is greater than 10 µM.
